Assay results reported in the RNAGym collection of RNA variant scans (doi:10.1073/pnas.2313332121).
Fewer inactive variants are shown than the library holds.

B1: TPR 5TU (parent)
chain: GGAUCUUCUCGAUCUAACAAAAAAGACAAAUCUGCCACAAAGCUUGAGAGCAUCUUCGGAUGCAGAGGCGGCAGCCUUCGGUGGCGCGAUAGCGCCAACGUUCUCAACUAUGACACGCAAAACGCGUGCUCCGUUGAAUGGAGUUUAUCAUG

Variants of: B1
Assay: polymerase ribozyme fitness, log enrichment relative to wild type (log ratio); higher = more active; in vitro selection for triplet polymerase activity
Procedure, shortened: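 Fitness measures genotype enrichment against wild-type enrichment on a logarithmic scale, with inverse-variance-weighted averaging of replicates. The logarithm is base 2, and genotypes were kept only with ≥10 input reads and ≥1 read per output in Illumina sequencing. The sequenced libraries came from one triplicate in vitro selection round, including frozen incubation at −7 °C, of PCR-built, transcribed mutant libraries of each subunit of a heterodimeric triplet polymerase ribozyme.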

Variant | polymerase ribozyme fitness (log ratio)
A91G A106G A150U | -0.616
C93A G141U | -0.625
C85G U104C | -2.69
C85G U104A | -2.4
C93G A119G | -3.48
A89C C93U U135A | -3.55
G88U G92C G117U | -3.57
C93A A98U | -0.828
C87A U135C | ≤ -4.2
G92U C103G | -3.77
C87G A91C A122G | ≤ -4.2
G86A U148A | -3.4
G92U C149U | -1.29
A91C U104A | ≤ -4.2
C85G G112C A138U C149A | ≤ -4.2
C85G A98U G124U A147C | -2.53
C93G A115G | -4.09
G92U C116G C132G | -3.8
G86U A97U C132A | ≤ -4.2
C85U A137C | -3.1
C85A U135G | ≤ -4.2

Variant | polymerase ribozyme fitness (log ratio)
A89G C108U | -3.7
C85G C103A G140U | ≤ -4.2
G88U C96G A106U G143A | ≤ -4.2
C87U C96U U104C A107U G141U | ≤ -4.2
A89G A119C | -1.39
G92C C123U | -2.47
C87U A113U A122G G136U U144C | -3.67
A89U A115G | -1.6
C93G A121C | -3.39
G92A C95A | -3.27
A91G A115C | -3.57
A91C A98U C116A A121G U130G | ≤ -4.2
A89G A142C | -1.45
G92U A138U | -4.2
G92A A106C | -3.04
C87U G92U A97U C99G | ≤ -4.2
C85U A121C G141U | 2.08
C85G U102A G133U A137U G141C | -3.8
A89G C95A | -2.08
C87U A142U | -0.783
G92C A119G | 0.0407

Variant | polymerase ribozyme fitness (log ratio)
A89G A121G C131G | -3.53
A91C A137C A150C U151G | ≤ -4.2
G88A U104G | ≤ -4.2
U90G G92C | ≤ -4.2
C87U U134C | -0.522
G86A G94A A110G | ≤ -4.2
G92U G136A | 0.353
C85U C114A | -3.52
C87U C125U | -2.13
C87U C125G | -1.53
G92A C103G | -4
G92A C103A | -3.9
G86C A137G | -3.37
C87A A119G A137G | ≤ -4.2
G88A C96U | -3.43
G88C G100A | ≤ -4.2
C85U G140C | -2.76
G92U C105G C125U A137G | -3.35
C87U A98U | -1.16
C85U C123U U127C | -1.83
A91C U109C | ≤ -4.2

Variant | polymerase ribozyme fitness (log ratio)
C85U U135A | -0.52
C85U U135C | -2.09
C85G U145A | -1.65
C85G U145C | -2.42
G92U A147U | 0.301
C85U A91C | ≤ -4.2
A91G C105U | -1.66
G92A G141U | -1.8
C87G C93G | -3.76
G92U A122U G141C | -0.707
G86U C116U | -1.03
G86U C116G | -1.04
A91U G141U | ≤ -4.2
A91U G141C | -4.05
G88A G94U U146C | -4.14
G86U A121U | -0.702
G92U G141C U146A | -0.994
C93A U135C | -3.56
G88U C132U | -3.92
C87U | -0.596
C87A | ≤ -4.2
